From the supplement of paper PMC11246515 come the findings set out here.

± gives the standard deviation of the averaged measurements.

The data set can be described thus: total protein half-life in vivo (active degradation + dilution); higher = more stable protein.
Setting [1] is: E. coli NCM3722 delta-clpP delta-lon delta-hslV, growth: N-lim chemostat, doubling time 6 h.
Where [2] appears, read: E. coli NCM3722 delta-clpP, growth: N-lim chemostat, doubling time 6 h.
[3] abbreviates: wild type E. coli NCM3722, growth: C-lim chemostat, doubling time 3 h.
The mark [4] stands for this setting: wild type E. coli NCM3722, growth: C-lim chemostat, doubling time 6 h.
[5] abbreviates: wild type E. coli NCM3722, growth: C-lim chemostat, doubling time 12 h.
[6] abbreviates: wild type E. coli NCM3722, growth: N-lim chemostat, doubling time 6 h.
The mark [7] stands for this setting: wild type E. coli NCM3722, growth: N-lim chemostat, doubling time 12 h.
[8] abbreviates: E. coli NCM3722 delta-hslV, growth: N-lim chemostat, doubling time 6 h.
Where [9] appears, read: E. coli NCM3722 delta-lon, growth: N-lim chemostat, doubling time 6 h.
[10] abbreviates: E. coli NCM3722 delta-smpB, growth: N-lim chemostat, doubling time 6 h.
The mark [11] stands for this setting: wild type E. coli NCM3722, growth: P-lim chemostat, doubling time 6 h.
The mark [12] stands for this setting: wild type E. coli NCM3722, growth: P-lim chemostat, doubling time 12 h.

Consider “MILTDPEWQAVLLSLKVSSLAVLFSLPFGIFFAWLLVRCTFPGKALLDSVLHLPLVLPPVVVGYLLLVSMGRRGFIGERLYDWFGITFAFSWRGAVLAAAVMSFPLMVRAIRLALEGVDVKLEQAARTLGAGRWRVFFTITLPLTLPGIIVGTVLAFARSLGEFGATITFVSNIPGETRTIPSAMYTLIQTPGGESGAARLCIISIALAMISLLISEWLARISRERAGR [P0AF01]”, for which the “total protein half-life in vivo” value reads like this: under setting [1], 4.97 h; under setting [2], 6.15 h; under setting [3], 3.03 h; under setting [4], 4.97 h; under setting [5], 9.85 h; under setting [6], 5.21 h. In addition, the “total protein half-life in vivo” value under setting [7] is 9.16 h.
As to “MASQLTDAFARKFYYLRLSITDVCNFRCTYCLPDGYKPSGVTNKGFLTVDEIRRVTRAFARLGTEKVRLTGGEPSLRRDFTDIIAAVRENDAIRQIAVTTNGYRLERDVASWRDAGLTGINVSVDSLDARQFHAITGQDKFNQVMAGIDAAFEAGFEKVKVNTVLMRDVNHHQLDTFLNWIQHRPIQLRFIELMETGEGSELFRKHHISGQVLRDELLRRGWIHQLRQRSDGPAQVFCHPDYAGEIGLIMPYEKDFCATCNRLRVSSIGKLHLCLFGEGGVNLRDLLEDDTQQQALEARISAALREKKQTHFLHQNNTGITQNLSYIGG”, the “total protein half-life in vivo” value came out at 3.3 ± 0.76 h under setting [1]; 1.83 ± 0.45 h under setting [2]; 0.963 ± 0.26 h under setting [8]; 1.07 ± 0.34 h under setting [9]; 0.9113 ± 0.009 h under setting [10]; 0.618 ± 0.051 h under setting [3]. The “total protein half-life in vivo” value under setting [4] is 1.11 ± 0.23 h; the “total protein half-life in vivo” value under setting [5] turned out to be 1.92 ± 0.54 h; the “total protein half-life in vivo” value under setting [6] stood at 1.03 h; the “total protein half-life in vivo” value under setting [7] is 1.81 ± 0.17 h; the “total protein half-life in vivo” value under setting [11] was greater than 8 h; the “total protein half-life in vivo” value under setting [12] turned out to be 2.39 ± 0.45 h.
On to “MNDEMKGKSGKVKVMYVRSDDDSDKRTHNPRTGKGGGRPGKSRADGGRRPARDDKQSQPRDRKWEDSPWRTVSRAPGDETPEKADHGGISGKSFIDPEVLRRQRAEETRVYGENACQALFQSRPEAIVRAWFIQSVTPRFKEALRWMAANRKAYHVVDEAELTKASGTEHHGGVCFLIKKRNGTTVQQWVSQAGAQDCVLALENESNPHNLGGMMRSCAHFGVKGVVVQDAALLESGAAIRTAEGGAEHVQPITGDNIVNVLDDFRQAGYTVVTTSSEQGKPLFKTSLPAKMVLVLGQEYEGLPDAARDPNDLRVKIDGTGNVAGLNISVATGVLLGEWWRQNKA [P0AGJ5]”, for which the “total protein half-life in vivo” value under setting [2] was 5.71 ± 0.11 h; the “total protein half-life in vivo” value under setting [8] amounted to 4.87 ± 0.12 h; the “total protein half-life in vivo” value under setting [9] amounted to 5.2 ± 0.25 h; the “total protein half-life in vivo” value under setting [10] came out at 4.77 ± 0.058 h; the “total protein half-life in vivo” value under setting [3] is 2.91 ± 0.33 h; the “total protein half-life in vivo” value under setting [4] came out at 5.57 ± 0.52 h. For the same sequence, the “total protein half-life in vivo” value by setting is: under setting [5], 10.3 ± 0.99 h; under setting [6], 5.53 ± 0.15 h; under setting [7], 10.7 ± 1.5 h; under setting [11], 5.4 ± 0.26 h; under setting [12], 10.9 ± 0.76 h.
As for “MTNNPLIPQSKLPQLGTTIFTQMSALAQQHQAINLSQGFPDFDGPRYLQERLAHHVAQGANQYAPMTGVQALREAIAQKTERLYGYQPDADSDITVTAGATEALYAAITALVRNGDEVICFDPSYDSYAPAIALSGGIVKRMALQPPHFRVDWQEFAALLSERTRLVILNTPHNPSATVWQQADFAALWQAIAGHEIFVISDEVYEHINFSQQGHASVLAHPQLRERAVAVSSFGKTYHMTGWKVGYCVAPAPISAEIRKVHQYLTFSVNTPAQLALADMLRAEPEHYLALPDFYRQKRDILVNALNESRLEILPCEGTYFLLVDYSAVSTLDDVEFCQWLTQEHGVAAIPLSVFCADPFPHKLIRLCFAKKESTLLAAAERLRQL”, the “total protein half-life in vivo” value is, setting by setting: under setting [1], 2.63 ± 0.15 h; under setting [2], 1.93 ± 0.071 h; under setting [8], 1.69 ± 0.11 h; under setting [9], 2.09 h; under setting [10], 2.01 ± 0.052 h; under setting [3], 2.48 ± 0.11 h. For the same sequence, the “total protein half-life in vivo” value under setting [4] was determined as 3.9 ± 0.38 h; the “total protein half-life in vivo” value under setting [5] is 5.92 ± 0.72 h; the “total protein half-life in vivo” value under setting [6] came to 1.95 h; the “total protein half-life in vivo” value under setting [11] was found to be 5.33 ± 1.2 h; the “total protein half-life in vivo” value under setting [12] came out at 8.16 ± 1 h.
On to “MIKRTLLAAAIFSALPAYAGLTSITAGYDFTDYSGDHGNRNLAYAELVAKVENATLLFNLSQGRRDYETEHFNATRGQGAVWYKWNNWLTTRTGIAFADNTPVFARQDFRQDINLALLPKTLFTTGYRYTKYYDDVEVDAWQGGVSLYTGPVITSYRYTHYDSSDAGGSYSNMISVRLNDPRGTGYTQLWLSRGTGAYTYDWTPETRYGSMKSVSLQRIQPLTEQLNLGLTAGKVWYDTPTDDFNGLQLAARLTWKF”, for which the “total protein half-life in vivo” value runs as follows: under setting [10], greater than 8 h; under setting [5], 15.4 h.
As for “MPLLHLLRQNPVIAAVKDNASLQLAIDSECQFISVLYGNICTISNIVKKIKNAGKYAFIHVDLLEGASNKEVVIQFLKLVTEADGIISTKASMLKAARAEGFFCIHRLFIVDSISFHNIDKQVAQSNPDCIEILPGCMPKVLGWVTEKIRQPLIAGGLVCDEEDARNAINAGVVALSTTNTGVWTLAKKLL”, the “total protein half-life in vivo” value by setting is: under setting [10], 3.74 h; under setting [3], 2.77 ± 0.24 h; under setting [4], 4.77 ± 0.7 h; under setting [5], 12.1 ± 1.7 h; under setting [12], 8.94 h.
